Series [1] addresses T1, PDGF-BB (Homo sapiens, UniProt P01127 P01127:82-190). In words: SPR; COs did not significantly accelerate dissociation; koff only in figure. The following applies: tags: R&D Systems; amine-coupled to SPR chip; chain copies: 2 (inferred, homodimer); three-stem junction.
Series [2] addresses T1, PDGF-BB. Put plainly: SPR; virtually same as S1. The following applies: tags: R&D Systems; amine-coupled to SPR chip; chain copies: 2 (inferred, homodimer). How it is done:
(§1) The affinities of the aptamers were measured with surface plasmon resonance (SPR) spectrometry (SR7000DC, Reichert Analytical Instrument, Depew, N.Y.). Carboxyl group-functionalized sensor chips were purchased from the Reichert Analytical Instrument. The chips were initially activated with 0.2 M EDC/0.1 M NHS for 10 min After the activation step, PDGF-BB (20 μg/ml in 25 mM Na₂HPO₄ at pH 8.5) was flowed over the activated sensor chip for protein immobilization. Before the test, the system was equilibrated with the running buffer for 30 min. The running buffer was made of PBS buffer (pH 7.4) containing 0.05% Tween 20. During the test, the aptamer solution was flowed over the sensor chip at a flow rate of 30 μL/minute for 5 minutes. Subsequently, the flowing solution was switched to the running buffer for molecular dissociation. After each test, the sensor chip was regenerated by flowing 1 M NaCl in the channel for 2 minutes and then washed with the running buffer. To determine the dissociation constants, a series of aptamer solutions were prepared with the concentration ranging from 3.13 to 200 nM. The data were processed with the Scrubber 2.0 software (BioLogic Software, Australia). The responses from the reference channel were subtracted from the responses from analyte channel before data analysis to minimize the effects of reflective index changes, nonspecific binding, and instrument drift. The dissociation constant (KD) was determined by fitting the data to a simple biomolecular “1:1 binding” model.

The target of series [3] is T1, PDGF-BB. Put plainly: SPR; PBS, 0.05% Tween 20. The following applies: tags: R&D Systems, amine-coupled to SPR chip, chain copies: 2 (inferred, homodimer). How it is done:
The molecular interaction between PDGF-BB and the aptamers were studied by SPR spectrometry (SR7000DC, Reichert Analytical Instrument, Depew, N.Y.). PDGF-BB was immobilized onto a sensor chip via amide synthesis. An aqueous solution of NHS (0.0115 g/ml) and EDC (0.038 g/ml) was flowed over the sensor chip at a flow rate of 30 μL/min. After the EDC/NHS-mediated activation of the biochip surface for 10 min, 10 μg/mL of PDGF-BB solution (pH 8.5) was flowed over the chip surface for protein immobilization. Prior to the molecular recognition analysis, the sensor chip was equilibrated for 30 min with a phosphate-buffered saline (PBS) solution containing 0 05% Tween 20. During the binding analysis, 500 nM of binding solution containing either anti-PDGF-BB aptamer or its control was flowed over the biochip at 30 μL/min. The biochip was regenerated with 1 M of NaCl. The binding analysis was repeated twice to confirm the reproducibility. The equilibrium dissociation constant (KD) was calculated with direct curve fitting of the sensorgrams using the software provided by the manufacturer.
Polyacrylamide gel and anti-platelet-derived growth factor-BB (PDGF-BB) aptamer were used as a model system. […] The binding functionality was evaluated with surface plasmon resonance (SPR) analysis, which directly provides information on the binding affinity.

For series [4], the target named is T1, PDGF-BB. In words: SPR; PBS with 500 nM scrambled CO during dissociation. The following applies: tags: R&D Systems; amine-coupled to SPR chip; chain copies: 2 (inferred, homodimer). How it is done: The molecular interaction between the PDGF-BB and its aptamer was studied using the SPR spectrometry (SR7000DC; Reichert Analytical Instrument; Depew, N.Y.). A carboxyl group-functionalized sensor chip (Reichert Analytical Instrument; Depew, N.Y.) was activated with NHS and EDC for PDGF-BB immobilization. The binding solution of 100 nM of either anti-PDGF-BB aptamers or scrambled aptamers was flowed over the biochip for 5 minutes (30 μL/min) for the analysis of molecular association. Subsequently, the washing solution (PBS, PBS containing 500 nM of CO, or PBS containing 500 nM of S—CO) was introduced over the biochip for another five minutes (30 μL/min) for the analysis of molecular dissociation. The biochip was regenerated by flowing 1 M of NaCl in the channel for two minutes (100 μL/min) followed by the PBS. The dissociation rate constant (koff) was obtained by fitting the binding profiles with the Scrubber 2.0 software as provided by the manufacturer.
Because real applications were involve not only aptamers and COs, but also target proteins, surface plasmon resonance (SPR) was used to directly examine the intermolecular hybridization-mediated protein dissociation (FIG. 11).

Series [5] addresses T1, PDGF-BB. In words: SPR; PBS pH 7.4, 0.05% Tween 20; equilibrium analysis. The following applies: tags: R&D Systems; amine-coupled to SPR chip; chain copies: 2 (inferred, homodimer). On the procedure:
as §1
The interaction of a molecular pair was determined by not only molecular association but also molecular dissociation. The dissociation rate constant divided by the association rate constant is defined as the equilibrium dissociation constant (KD). Thus, a series of aptamer solutions were prepared and the aptamer-protein interactions were characterized by calculating the dissociation constants (FIG. 19). The concentration-dependent responses were processed to calculate KD using an equilibrium analysis. […]

Series [6] concerns the target T1, PDGF-BB. Put plainly: SPR; reference for normalized response; PBS pH 7.4, 0.05% Tween 20. Particulars: tags: R&D Systems; amine-coupled to SPR chip; chain copies: 2 (inferred, homodimer); three-stem junction with 10-nt 5' tail. On the procedure: The affinities of the aptamers were measured with surface plasmon resonance (SPR) spectrometry (SR7000DC, Reichert Analytical Instrument, Depew, N.Y.). Carboxyl group-functionalized sensor chips were purchased from the Reichert Analytical Instrument. The chips were initially activated with 0.2 M EDC/0.1 M NHS for 10 min After the activation step, PDGF-BB (20 μg/ml in 25 mM Na₂HPO₄ at pH 8.5) was flowed over the activated sensor chip for protein immobilization. Before the test, the system was equilibrated with the running buffer for 30 min. The running buffer was made of PBS buffer (pH 7.4) containing 0.05% Tween 20. During the test, the aptamer solution was flowed over the sensor chip at a flow rate of 30 μL/minute for 5 minutes. Subsequently, the flowing solution was switched to the running buffer for molecular dissociation. After each test, the sensor chip was regenerated by flowing 1 M NaCl in the channel for 2 minutes and then washed with the running buffer. To determine the dissociation constants, a series of aptamer solutions were prepared with the concentration ranging from 3.13 to 200 nM. The data were processed with the Scrubber 2.0 software (BioLogic Software, Australia). […] The dissociation constant (KD) was determined by fitting the data to a simple biomolecular “1:1 binding” model.

T1 sequence (P01127 82-190, one chain of several): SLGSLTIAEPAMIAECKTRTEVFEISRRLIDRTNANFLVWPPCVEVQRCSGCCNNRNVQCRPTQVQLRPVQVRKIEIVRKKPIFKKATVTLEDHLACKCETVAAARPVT

With ACAGGCTACGGCACGTAGAGCATCACCATGATCCTG (ssDNA) [36-nt truncated aptamer], the binding result with PDGF-BB [1] was “binds”.

Consider CGCCATTCAGACAGGCTACGGCACGTAGAGCATCACCATGATCCTG (ssDNA) [S4], for which the binding result with PDGF-BB [2] was “binds”.

For the molecule GCAACTGCTCACAGGCTACGGCACGTAGAGCATCACCATGATCCTG (ssDNA) [S9], in the series with PDGF-BB [2], the binding result is recorded as “binds”.

As to CATGAGCCCTACAGGCTACGGCACGTAGAGCATCACCATGATCCTG (ssDNA) [S10], the binding result with PDGF-BB [2] is listed as “binds”.

Regarding TCGCACATGCACAGGCTACGGCACGTAGAGCATCACCATGATCCTG (ssDNA) [S6], in the series with PDGF-BB [2], the binding result is “binds”.

Molecule GCGATACTCCACAGCTGACGGCACGGTAAGCATCACCATGATGTCC (ssDNA, 5'-Acrydite) [control (lower-affinity) aptamer] showed a dissociation constant (Kd) with PDGF-BB [3] of 220 nM.

As for CAATTCCGCGACAGGCTACGGCACGTAGAGCATCACCATGATCCTG (ssDNA) [S2], in the series with PDGF-BB [2], the binding result was “binds”.

Turning to CCACGGTCTAACAGGCTACGGCACGTAGAGCATCACCATGATCCTG (ssDNA) [S3], the binding result with PDGF-BB [2] was “binds”.

B1: 61-nt anti-PDGF-BB aptamer (ssDNA)
DNA: AAAAAAAAAAACAGGCTACGGCACGTAGAGCATCACCATGATCCTGTGACTTGAGCAAAAT
modifications: 5'-NH2
In the series with PDGF-BB [4], B1 had an off-rate (koff) of 0.00065 s⁻¹.

The molecule GCGATACTCCACAGGCTACGGCACGTAGAGCATCACCATGATCCTG (ssDNA, 5'-Acrydite) [anti-PDGF-BB aptamer (higher affinity, 46-nt)] registered an equilibrium dissociation constant (Kd) with PDGF-BB [3] (three-stem junction with 10-nt 5' tail) of 25 nM. This lies in the double-digit nanomolar range.

For the molecule GCGATACTCCACAGGCTACGGCACGTAGAGCATCACCATGATCCCA (ssDNA) [M2], in the series with PDGF-BB [5], the Kd worked out at 109 nM.

GCGATACTCCACAGGCTACGGCACGTAGAGCATCACCATGATCCTA (ssDNA) [M1] showed a Kd with PDGF-BB [5] of 27.6 nM. Compared with the last molecule, the Kd is about 3.9-fold lower.

In the case of GCGATACTCCACAGGCTACGGCACGTAGAGCATCACCATGATCTCA (ssDNA) [M3], binding with PDGF-BB [5] was put at a Kd of 354 nM.

On to GCGATACTCCACAGGCTACGGCACGTAGAGCATCACCATGATCCTG (ssDNA) [S1], for which the binding result in the series with PDGF-BB [6] is given as “binds”.

The record behind these values is patent publication US20130196915, “AFFINITY HYDROGELS FOR CONTROLLED PROTEIN RELEASE” (published 2013).
